What all share (assay): cell-based or functional assay
Test [1] concerns the target SARS-CoV-2 spike protein, Omicron variant BA.2.75.2 (SARS-CoV-2).
In test [2] the target is SARS-CoV-2 spike protein, Omicron variant BQ.1 (SARS-CoV-2).
In test [3] the target is SARS-CoV-2 spike protein, Omicron variant BA.4/5 (SARS-CoV-2).
The target of test [4] is SARS-CoV-2 spike protein, Omicron variant XBB (SARS-CoV-2).
Test [5] deals with SARS-CoV-2 spike protein, Omicron variant BQ.1.1 (SARS-CoV-2).

The results in this text go back to patent publication US20240109955A1.

B1: MX1070 (protein)
chain 1: QTVVTQEPSFSVSPGGTVTLTCGLSSGSVSTAYFPSWYQQTPGQAPRTLIYGTNTRSSGVPDRFSGSILGNKAALTITGAQADDESDYYCVLYMGRGIVVFGGGTKLTVLGGSSGEIVLTQSPGTLSLSPGETATLSCRASQSFSSDLAWYQQKPGQAPRLLIYGASSRATGIPDRFSGSGSGTDFTLTISRLEPADFAVYYCQQYGSSPPVTFGGGTKVEIKGGGGSGGSGSGGGGSASGSGEVQLVESGGGLIQPGGSLRLSCAASGVIVSYNYMNWVRQAPGKGLEWVSVIYSGGSTFYADSVRGRFTISRDNSKNTLYLQMNSLRAEDTAVYYCARDLGPAGAFDIWGLGTMVTVSSGGSSGQVQLVESGGGVVQPGRSLRLSCAASGFTLSSYGMHWVRQAPGKGLEWVAVISYDGSNKYYVDSVKGRFTISRDNSKNTLYLQMNSLRAEDTAVYYCRWAYWELLPDYYYGMDVWGQGTTVTVSSASGGSGDKTHTCPPCPAPELLGGPSVFLFPPKPKDTLMISRTPEVTCVVVDVSHEDPEVKFNWYVDGVEVHNAKTKPREEQYNSYVVSVLTVLHQDWLNGKEYKCKVSNKALPAPIEKTISKAKGQPREPQVYTLPPCRDELTKNQVSLWCLVKGFYPSDIAVEWESNGQPENNYKTTPPVLDSDGSFFKKLTVDKSRWQQGNVFSCSVLHEALHSHYTQKSLSLSPG
chain 2: DTVMTQSPLSLPVTPGEPASISCRSSQSLLNSNGYNYLDWYVQKPGQSPQLLIYLGSNRASGVPDRFSGSGSGTDFTLKISRVEAEDVGVYYCMQPLQTPLFTFGPGTKVEIKGGSSGEIVLTQSPGTLSLSPGETATLSCRASQSFSSDLAWYQQKPGQAPRLLIYGASSRATGIPDRFSGSGSGTDFTLTISRLEPADFAVYYCQQYGSSPPVTFGGGTKVEIKGGGGSGGSGSGGGGSASGSGEVQLVESGGGLIQPGGSLRLSCAASGVIVSYNYMNWVRQAPGKGLEWVSVIYSGGSTFYADSVRGRFTISRDNSKNTLYLQMNSLRAEDTAVYYCARDLGPAGAFDIWGLGTMVTVSSGGSSGQVTLRESGPALVKPTQTLTLTCTFSGFSLSTRGVCVSWIRQPPGKALEWLAFIDWDDDKYYNTSLKTRLTISKDTSKNQVVLTMTNVHPVDTATYYCARISSHHGSSWCTTFDYWGQGALVTVSAASGGSGDKTHTCPPCPAPELLGGPSVFLFPPKPKDTLMISRTPEVTCVVVDVSHEDPEVKFNWYVDGVEVHNAKTKPREEQYNSYVVSVLTVLHQDWLNGKEYKCKVSNKALPAPIEKTISKAKGQPREPQVCTLPPSRDELTKNQVSLSCAVKGFYPSDIAVEWESNGQPENNYKTTPPVLDSDGSFFLVSKLTVDKSRWQQGNVFSCSVLHEALHSHYTQKSLSLSPG
With B1, the IC50, pseudovirus neutralization in test [1] amounted to 2.4 ng/mL; in test [2], 4.64 ng/mL; in test [3] it was 2.49 ng/mL; in test [4] it was 2.9 ng/mL; in test [5] it was 4.06 ng/mL. Also, the IC80, pseudovirus neutralization in test [1] is 4.16 ng/mL; in test [2], 9.16 ng/mL; in test [3], 3.58 ng/mL; in test [4], 9.71 ng/mL; in test [5], 11 ng/mL.

B2: MX1073 (protein)
chain 1: QTVVTQEPSFSVSPGGTVTLTCGLSSGSVSTAYFPSWYQQTPGQAPRTLIYGTNTRSSGVPDRFSGSILGNKAALTITGAQADDESDYYCVLYMGRGIVVFGGGTKLTVLGGSSGEIVLTQSPGTLSLSPGETATLSCRASQSFSSDLAWYQQKPGQAPRLLIYGASSRATGIPDRFSGSGSGTDFTLTISRLEPADFAVYYCQQYGSSPPVTFGGGTKVEIKGGGGSGGSGSGGGGSASGSGEVQLVESGGGLIQPGGSLRLSCAASGVIVSYNYMNWVRQAPGKGLEWVSVIYSGGSTFYADSVRGRFTISRDNSKNTLYLQMNSLRAEDTAVYYCARDLGPAGAFDIWGLGTMVTVSSGGSSGQVQLVESGGGVVQPGRSLRLSCAASGFTLSSYGMHWVRQAPGKGLEWVAVISYDGSNKYYVDSVKGRFTISRDNSKNTLYLQMNSLRAEDTAVYYCRWAYWELLPDYYYGMDVWGQGTTVTVSSASGGSGDKTHTCPPCPAPELLGGPSVFLFPPKPKDTLMISRTPEVTCVVVDVSHEDPEVKFNWYVDGVEVHNAKTKPREEQYNSYVVSVLTVLHQDWLNGKEYKCKVSNKALPAPIEKTISKAKGQPREPQVYTLPPCRDELTKNQVSLWCLVKGFYPSDIAVEWESNGQPENNYKTTPPVLDSDGSFFKKLTVDKSRWQQGNVFSCSVLHEALHSHYTQKSLSLSPG
chain 2: QTVVTQEPSFSVSPGGTVTLTCGLSSGSVSTAYFPSWYQQTPGQAPRTLIYGTNTRSSGVPDRFSGSILGNKAALTITGAQADDESDYYCVLYMGRGIVVFGGGTKLTVLGGSSGDTVMTQSPLSLPVTPGEPASISCRSSQSLLNSNGYNYLDWYVQKPGQSPQLLIYLGSNRASGVPDRFSGSGSGTDFTLKISRVEAEDVGVYYCMQPLQTPLFTFGPGTKVEIKGGGGSGGSGSGGGGSASGSGQVTLRESGPALVKPTQTLTLTCTFSGFSLSTRGVCVSWIRQPPGKALEWLAFIDWDDDKYYNTSLKTRLTISKDTSKNQVVLTMTNVHPVDTATYYCARISSHHGSSWCTTFDYWGQGALVTVSAGGSSGQVQLVESGGGVVQPGRSLRLSCAASGFTLSSYGMHWVRQAPGKGLEWVAVISYDGSNKYYVDSVKGRFTISRDNSKNTLYLQMNSLRAEDTAVYYCRWAYWELLPDYYYGMDVWGQGTTVTVSSASGGSGDKTHTCPPCPAPELLGGPSVFLFPPKPKDTLMISRTPEVTCVVVDVSHEDPEVKFNWYVDGVEVHNAKTKPREEQYNSYVVSVLTVLHQDWLNGKEYKCKVSNKALPAPIEKTISKAKGQPREPQVCTLPPSRDELTKNQVSLSCAVKGFYPSDIAVEWESNGQPENNYKTTPPVLDSDGSFFLVSKLTVDKSRWQQGNVFSCSVLHEALHSHYTQKSLSLSPG
For the molecule B2, the IC50, pseudovirus neutralization in test [1] was found to be 1.81 ng/mL; in test [2] it was 1.9 ng/mL; in test [3], 2.78 ng/mL; in test [4], 9.3 ng/mL; in test [5], 5.77 ng/mL. For the same molecule, the IC80, pseudovirus neutralization in test [1] is 3.35 ng/mL; in test [2] it was 10.8 ng/mL; in test [3], 4.28 ng/mL; in test [4], 24 ng/mL; in test [5], 24.1 ng/mL.
